Assay results as given in patent US20250320288A1, “METHOD OF TREATING VITILIGO WITH INTERFERON-GAMMA ANTIBODY” (Elixiron Immunotherapeutics (Hong Kong), priority 2022, published 2025).
Entries after “also recorded” stand apart in the source; their conditions may differ.

Assays:
SLC7A11 = assay: Ferroptosis regulators in melanocytes (RNA sequencing, SLC7A11 immunoblot); type: cell-based, human; conditions: melanocytes
Excerpt: Total RNA was extracted from melanocytes with an RNA purification kit (Zymo Research, r2050). After RNA samples were extracted from primary melanocytes and melanocytes cell line (Gibco), the samples were sent to Biotools Co., Ltd Taiwan for RNA sequence. The RNA quality was examined by Agilent Technologies 2100 Bio-analyzer with an RNA integrity value greater than 8. After rRNA depletion (Epicenter), RNA fragmentation, and library preparation (Illumina), the constructed libraries were then performed 150 bp paired-end sequencing by an Illumina NovaSeq6000 sequencer. The results from each sample were aligned to the GRCh38 genome by the HISAT2 software and analyzed by Biotools Co., Ltd Taiwan.
Cells were washed in PBS and lysed in RIPA lysis buffer with proteases inhibitor and Phenylmethanesulfonyl fluoride (PMSF; Sigma-Aldrich, P7626). The total cell lysates were sonicated and centrifuged at 4° C., 13000 rpm for 30 min. Protein concentration was quantified using the Bradford assay. The total cell lysates were separated by SDS-PAGE and transferred to a PVDF membrane. The membrane was blocked with 5% BSA or 5% milk in TBST for 1 hour at room temperature and incubated with primary antibodies overnight at 4° C. and HRP-conjugated secondary antibodies for hour at room temperature. The protein was visualized by Thermo ibright1500. Primary antibodies were follows: anti-human SLC7A11 (CST, 12691), anti-human SLC3A2 (CST, 13180), anti-IRF1 (CST, 8478), anti-MITF (CST, 12590), and anti-GAPDH (Abcam, ab8245).

primary melanocytes = assay: Melanocyte cell viability after IFN-γ, chemokines, cell death inhibitors or 2A6Q, Day 2 and Day 7; type: cell-based, human; conditions: melanocytes with IFN-γ, up to seven days; listed as 2A6Q
Protocol: To determine cell viability of melanocyte after treatment with IFN-γ, CXCL9, CXCL10, CXCL11, at Day 2, and Day 7, the cells were collected and seeded into 96-well plates. After adhesion, cells were treated with IFN-γ (0, 10, 100 ng/ml) with different compounds: 2A6Q, CXCL9, CXCL10, CXCL11, ROS scavenger (NAC), necroptosis inhibitor (NEC-1), pyroptosis inhibitor (VX-765), apoptosis inhibitor (QVD-OPH), Ferroptosis inhibitor (Liproxstaitin-1, Ferrostatin-1, DFO). Cell viability was measured using a CellTiter-Glo luminescent cell viability assay kit (Promega) according to the manufacturer's protocol. The […] of the final reaction product was measured using a luminometer (SpectraMax® iD3 Multi-Mode Microplate Reader (Molecular Devices). After calculation, the viability of control cells was 100%, and all others were normalized to control and shown as relative cell viability (%). Treatment dosage N-acetylcysteine (NAC; 0.05 mM, 1 mM), Necrostatin-1 (NEC-1; 20 μM, 2 μM), Belnacasan (VX-765; 50 μg/mL, 5 μg/mL), Quinoline-Val Asp-Difluorophenoxymethylketone (QVD-OPH; 10 μM, 2 μM), Liproxstaitin-1 (10 μM, 5 μM, 1 μM, 0.05 μM), Ferrostatin-1 (5 μM, 1 μM), Deferoxamine (DFO; 10 μM, […], 1 μM, 0.05 μM), 2A6Q (10 μg/mL), CXCL9 (10 ng/mL, 10 pg/mL), CXCL10 (10 ng/ml, 10 pg/mL), CXCL11(10 ng/mL, 10 pg/mL).

melanocytes [1] = assay: Lipid peroxidation in melanocytes (BODIPY 581/591 C11); type: cell-based, human; conditions: melanocytes
Protocol: For lipid peroxidation examination, melanocyte cells were seeded in a 6-well plate and treated with IFN-γ the next day. Melanocytes were washed with PBS and incubated with Hanks balanced salt solution (HBSS, Gibco) containing 5 μM BODIPY 581/591 C11 (Invitrogen, D3861) and incubated for 15 minutes at 37° C. in a tissue culture incubator. The cells were resuspended with fresh HBSS and examined with flow cytometry; the data were analyzed with FlowJo.

recombinant human IFN-γ = target: T1, recombinant human IFN-γ (Homo sapiens, UniProt P01579); assay: EI-001 neutralization of IFN-γ, restoration of melanocyte melanogenesis; type: cell-based; conditions: addition of 2A6Q
T1 sequence (P01579 24-161 limits assumed): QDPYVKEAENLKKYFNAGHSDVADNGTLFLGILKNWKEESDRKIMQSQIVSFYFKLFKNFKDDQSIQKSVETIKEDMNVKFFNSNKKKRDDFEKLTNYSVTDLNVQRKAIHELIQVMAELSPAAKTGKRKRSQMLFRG
Protocol: Materials and methods: To examine the dose-dependency of IFN-γ inhibition of HEMn-DP cell melanogenesis, HEMn-DP cells were seeded into a 24-well plate at a concentration of 200,000 cells/well in 1 mL assay medium (M254 supplemented with 1× HMGS, 10 ng/mL PMA plus Penicillin-Streptomycin) with serial dilutions of IFN-γ, followed by incubation at 37° C. for 7 days. The cell assay medium was replaced by fresh medium with serially titrated concentrations of IFN-γ on day 3 and day 5. On day 7, cells were first washed with PBS twice, lysed in 250 μL of 1N NaOH/10% DMSO solution, then incubated at 80° C. for 1 hr. After lysis, each lysate was transfer to 96 well plate, and absorbance of melanin was then measured at […]. The relative melanin quantity was normalized with cell viability of each sample which was measured by CellTiter-Glo kit, and data were analyzed using nonlinear regression curve fit using GraphPad Prism7. To determine the potency of EI-001, HEMn-DP cells were seeded as previously described, and IFN-γ pre-incubated with indicated amounts of EI-001 for 25 min in 1 mL of assay medium. After incubation, the mixture was added to each well (final IFN-γ concentration is 20 ng/ml). Melanin content of melanocytes was determined as previously described.

melanocytes [2] = assay: Melanocyte apoptosis, Annexin V / 7AAD flow cytometry; type: cell-based, human; conditions: 2A6Q 10 μg/mL
Protocol: Materials and methods: Melanocyte cell apoptosis was detected with Annexin V (BD, 550474) and 7AAD (1 mg/mL, Sigma A9400-1 MG). The cells were detached and resuspended with […] binding buffer (BD, 556454) containing Annexin V and 7AAD for 15 min at room temperature in the dark. Before analysis, cells were added to a […] binding buffer and immediately analyzed a on a flow cytometer (Verse BD).

B1: EI-001: human monoclonal anti-IFN-γ neutralizing antibody; VH SEQ ID NO: 165, VL SEQ ID NO: 113; N76Q removes VH glycosylation site (antibody, listed as Homo sapiens, V domains shown)
VH: EVQLVESGGGLVKPGDSLTVSCVASGFTFSNYFIHWVRQAPGKGLEWVATISGRTKYMFYSDSLRGRFTVSRDNAQNSVYLHMSSLRGEDTALYYCVRGYDHSDSNSAADLLHWGRGTLVTVSS
VL: NFMLTQPLSVSGYPGKTIVISCVRSSGSVASHYVQWFQQRPGSAPAMVIYEDSHRPSGIPDRFSGSVDASSNSASLTISGLKTEDEADYFCQSYYGNNQVLFGGGTKLTVL
modifications: Recombinant variant antibody sequence
notes: human monoclonal anti-IFN-γ neutralizing antibody; N76Q removes VH glycosylation site
reversal of ferroptosis as demonstrated by SLC7A11 (SLC7A11): reverses ferroptosis
rescue of IFN-γ induced melanocyte cell death (cell viability) (primary melanocytes): more profound than all other cell death inhibitors; also recorded: rescue cell viability of melanocyte in a time-dependent manner
reversal of IFN-γ induced lipid peroxidation (melanocytes [1]): reverses
rescue of IFN-γ induced decrease in melanin content (recombinant human IFN-γ): can be rescued; also recorded: reverses
reversal of IFN-γ induced early phase apoptosis (melanocytes [2]): managed to reverse the apoptosis; also recorded: reverses
